The test addresses wild-type influenza B virus nucleoprotein (BNP), B/panama/45/1990 (influenza B virus (B/panama/45/1990)). In words: negative-stain electron microscopy.

As a reminder, the stoichiometry N is a count of units in the complex or per binding partner. As for “wild-type influenza B virus nucleoprotein (BNP), B/panama/45/1990 (natural protein)”, the stoichiometry N was > 6.

The values are drawn from paper PMC4569402.
